{"source": "the supplement of paper PMC10065799", "about": "“High-throughput profiling of sequence recognition by tyrosine kinases and SH2 domains using bacterial peptide display” (eLife, 2023);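 also: 11-residue human phosphosite peptides and single-mutation variants displayed on the E. coli surface, counted by deep sequencing, each peptide's frequency after selection divided by its frequency in the unselected input library; frequency after pTyr selection over input frequency; kinase dosed for 20-30% of maximal phosphorylation in three min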"}
{"target": "EPHB2 (UniProt P29323)", "sequence (P29323 whole entry, looked up)": "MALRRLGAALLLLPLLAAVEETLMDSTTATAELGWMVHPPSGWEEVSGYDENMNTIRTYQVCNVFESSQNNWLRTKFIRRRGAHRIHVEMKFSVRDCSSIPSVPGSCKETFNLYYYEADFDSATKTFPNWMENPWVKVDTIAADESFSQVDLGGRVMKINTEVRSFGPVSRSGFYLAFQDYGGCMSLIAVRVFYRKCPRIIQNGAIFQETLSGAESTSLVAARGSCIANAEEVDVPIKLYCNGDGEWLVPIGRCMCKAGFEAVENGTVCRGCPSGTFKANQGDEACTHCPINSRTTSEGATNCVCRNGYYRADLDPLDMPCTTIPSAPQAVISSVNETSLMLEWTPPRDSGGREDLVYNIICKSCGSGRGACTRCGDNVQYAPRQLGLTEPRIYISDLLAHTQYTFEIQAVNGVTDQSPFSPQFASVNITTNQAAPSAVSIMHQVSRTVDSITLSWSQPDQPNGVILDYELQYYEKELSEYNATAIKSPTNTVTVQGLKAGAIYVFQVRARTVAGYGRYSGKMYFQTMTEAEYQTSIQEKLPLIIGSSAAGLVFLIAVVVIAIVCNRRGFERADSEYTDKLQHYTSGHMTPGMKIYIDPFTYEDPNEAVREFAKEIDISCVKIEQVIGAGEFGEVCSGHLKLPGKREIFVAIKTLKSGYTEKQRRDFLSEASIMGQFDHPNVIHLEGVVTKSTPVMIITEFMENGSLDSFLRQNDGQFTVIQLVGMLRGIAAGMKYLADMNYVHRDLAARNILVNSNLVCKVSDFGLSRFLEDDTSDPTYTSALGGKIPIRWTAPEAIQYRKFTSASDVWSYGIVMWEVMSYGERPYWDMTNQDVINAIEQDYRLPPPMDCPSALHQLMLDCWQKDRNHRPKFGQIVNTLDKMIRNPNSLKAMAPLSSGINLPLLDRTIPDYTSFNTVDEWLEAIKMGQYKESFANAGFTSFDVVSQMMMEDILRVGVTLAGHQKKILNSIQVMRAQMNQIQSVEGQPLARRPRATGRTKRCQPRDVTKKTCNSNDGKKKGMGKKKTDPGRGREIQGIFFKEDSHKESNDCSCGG", "assay": "phosphorylation enrichment, bacterial display (enrichment ratio); higher = better substrate or ligand; peptides without Tyr show the background"}
{"sequence": "PIDLYYLMDLS [ITGB2_Y131]", "phosphorylation enrichment": 12.5}
{"sequence": "THLAPYSDELR [APOA1_Y190]", "phosphorylation enrichment": 0.582}
{"sequence": "FFVVEYRNQKP [MUC17_Y4332_D4334N_YF]", "phosphorylation enrichment": 0.841}
{"sequence": "GCLSKYSGVFS [TUBGCP6_Y1624_V1621L]", "phosphorylation enrichment": 0.543}
{"sequence": "DRLASYLEKVR [KRT13_Y118]", "phosphorylation enrichment": 0.399}
{"sequence": "KLPDAYEPLIL [G6PD_Y437_R439P]", "phosphorylation enrichment": 0.494}
{"sequence": "ESKKHYGYSLY [ANXA3_Y295_F291S]", "phosphorylation enrichment": 0.455}
{"sequence": "ERWLKYFPIEQ [HS3ST5_Y244]", "phosphorylation enrichment": 0.566}
{"sequence": "DTSKMYIPHTD [EXPH5_Y782]", "phosphorylation enrichment": 0.405}
{"sequence": "MCITQYKRESQ [PRNP_Y218_E219K]", "phosphorylation enrichment": 0.587}
{"sequence": "NAPNSYGRRPS [CDKN2A_Y44_I49S]", "phosphorylation enrichment": 0.593}
{"sequence": "LDPDSYNKFEN [FOXC1_Y159_M161K]", "phosphorylation enrichment": 0.656}
{"sequence": "LNGDRYFKGIV [DCX_Y64_R59L]", "phosphorylation enrichment": 3.35}
{"sequence": "AAVNGYVFGGG [ECHS1_Y137_A138V]", "phosphorylation enrichment": 0.398}
{"sequence": "SHNKYYMLVAH [MFSD8_Y134_R139H]", "phosphorylation enrichment": 0.651}
{"sequence": "LYSGDYYRIQG [DDR2_Y740]", "phosphorylation enrichment": 30.3}
{"sequence": "SLMGCYNLTFM [HS6ST3_Y323_V320M]", "phosphorylation enrichment": 0.655}
{"sequence": "LRVHSYKSMQH [DRC7_Y516_P521H]", "phosphorylation enrichment": 0.772}
{"sequence": "PKDSAYVTWEP", "phosphorylation enrichment": 0.798}
{"sequence": "IKAGAYDFPSP [CAMK2A_Y230]", "phosphorylation enrichment": 0.416}
{"sequence": "QLAPQYTFAQG [FLNA_Y1761_YF]", "phosphorylation enrichment": 0.523}
{"sequence": "VKANTYEKFWP [GATM_Y100_YF]", "phosphorylation enrichment": 0.374}
{"sequence": "LTERGYSFTTT [ACTB_Y198]", "phosphorylation enrichment": 0.492}
{"sequence": "LTVVIYVLVGR [EPHA3_Y561_I564V]", "phosphorylation enrichment": 0.251}
{"sequence": "RQQEVYLLFKQ [RARRES1_Y159_D158V_YF]", "phosphorylation enrichment": 0.589}
{"sequence": "RMQLPYDSTWE [PDGFRB_Y589_P584R]", "phosphorylation enrichment": 0.704}
{"sequence": "VCDSDYSASRW [LRP5_Y1552]", "phosphorylation enrichment": 0.877}
{"sequence": "FRIDHYLGKEM [G6PD_Y202_YF]", "phosphorylation enrichment": 0.41}
{"sequence": "CTTIHYNFMRN [TP53_Y234_C238R_YF]", "phosphorylation enrichment": 0.626}
{"sequence": "VPVDGYISGLL [PAK6_Y81_M76V]", "phosphorylation enrichment": 0.85}
{"sequence": "KLFRVYCDMNT [FGB_Y269_P265L_YF]", "phosphorylation enrichment": 0.619}
{"sequence": "ITGNGYYFRVF [MYBPC3_Y1135_I1131T]", "phosphorylation enrichment": 0.589}
{"sequence": "HDHFGYRQSVT [CD55_Y245_R240H_YF]", "phosphorylation enrichment": 0.434}
{"target": "Jak2 (UniProt O60674)", "sequence (O60674 whole entry, looked up)": "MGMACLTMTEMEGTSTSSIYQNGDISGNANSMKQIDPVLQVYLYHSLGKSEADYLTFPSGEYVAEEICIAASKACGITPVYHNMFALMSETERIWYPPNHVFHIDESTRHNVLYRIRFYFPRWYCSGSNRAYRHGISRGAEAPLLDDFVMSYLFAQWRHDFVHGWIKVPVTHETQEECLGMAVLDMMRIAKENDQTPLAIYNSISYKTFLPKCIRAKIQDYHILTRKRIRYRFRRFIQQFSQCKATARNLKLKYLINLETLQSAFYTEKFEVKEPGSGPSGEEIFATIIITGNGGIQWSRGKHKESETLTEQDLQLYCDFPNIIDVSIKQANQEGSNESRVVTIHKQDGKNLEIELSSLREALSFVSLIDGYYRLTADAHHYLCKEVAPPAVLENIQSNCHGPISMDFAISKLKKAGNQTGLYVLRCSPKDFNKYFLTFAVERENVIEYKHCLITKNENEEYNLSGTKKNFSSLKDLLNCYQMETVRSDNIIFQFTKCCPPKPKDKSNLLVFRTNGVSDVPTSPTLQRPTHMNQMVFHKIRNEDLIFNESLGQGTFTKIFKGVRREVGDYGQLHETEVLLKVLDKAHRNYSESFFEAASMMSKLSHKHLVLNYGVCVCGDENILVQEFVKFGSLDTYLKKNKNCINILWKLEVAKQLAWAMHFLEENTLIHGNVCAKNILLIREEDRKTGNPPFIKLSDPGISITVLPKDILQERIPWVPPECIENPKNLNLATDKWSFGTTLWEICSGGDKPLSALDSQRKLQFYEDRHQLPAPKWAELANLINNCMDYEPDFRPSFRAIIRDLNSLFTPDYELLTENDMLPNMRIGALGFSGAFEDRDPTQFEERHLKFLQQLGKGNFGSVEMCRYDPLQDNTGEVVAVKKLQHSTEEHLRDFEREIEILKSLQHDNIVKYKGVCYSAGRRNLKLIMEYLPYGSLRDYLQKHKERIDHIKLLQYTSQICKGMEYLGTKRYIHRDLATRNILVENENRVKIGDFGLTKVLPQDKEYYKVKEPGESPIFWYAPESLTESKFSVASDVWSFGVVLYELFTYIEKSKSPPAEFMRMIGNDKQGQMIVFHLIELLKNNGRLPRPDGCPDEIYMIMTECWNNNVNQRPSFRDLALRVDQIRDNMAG", "assay": "phosphorylation enrichment, bacterial display (enrichment ratio); higher = better substrate or ligand; peptides without Tyr show the background"}
{"sequence": "PIDLYYLMDLS [ITGB2_Y131]", "phosphorylation enrichment": 8.57}
{"sequence": "THLAPYSDELR [APOA1_Y190]", "phosphorylation enrichment": 0.688}
{"sequence": "FFVVEYRNQKP [MUC17_Y4332_D4334N_YF]", "phosphorylation enrichment": 1.55}
{"sequence": "GCLSKYSGVFS [TUBGCP6_Y1624_V1621L]", "phosphorylation enrichment": 1.19}
{"sequence": "DRLASYLEKVR [KRT13_Y118]", "phosphorylation enrichment": 0.616}
{"sequence": "KLPDAYEPLIL [G6PD_Y437_R439P]", "phosphorylation enrichment": 0.921}
{"sequence": "ESKKHYGYSLY [ANXA3_Y295_F291S]", "phosphorylation enrichment": 0.551}
{"sequence": "ERWLKYFPIEQ [HS3ST5_Y244]", "phosphorylation enrichment": 0.855}
{"sequence": "DTSKMYIPHTD [EXPH5_Y782]", "phosphorylation enrichment": 0.606}
{"sequence": "MCITQYKRESQ [PRNP_Y218_E219K]", "phosphorylation enrichment": 0.736}
{"sequence": "NAPNSYGRRPS [CDKN2A_Y44_I49S]", "phosphorylation enrichment": 0.711}
{"sequence": "LDPDSYNKFEN [FOXC1_Y159_M161K]", "phosphorylation enrichment": 1.52}
{"sequence": "LNGDRYFKGIV [DCX_Y64_R59L]", "phosphorylation enrichment": 0.942}
{"sequence": "AAVNGYVFGGG [ECHS1_Y137_A138V]", "phosphorylation enrichment": 0.591}
{"sequence": "SHNKYYMLVAH [MFSD8_Y134_R139H]", "phosphorylation enrichment": 1.32}
{"sequence": "LYSGDYYRIQG [DDR2_Y740]", "phosphorylation enrichment": 23.8}
{"sequence": "SLMGCYNLTFM [HS6ST3_Y323_V320M]", "phosphorylation enrichment": 1.61}
{"sequence": "LRVHSYKSMQH [DRC7_Y516_P521H]", "phosphorylation enrichment": 1.42}
{"sequence": "PKDSAYVTWEP", "phosphorylation enrichment": 1.36}
{"sequence": "IKAGAYDFPSP [CAMK2A_Y230]", "phosphorylation enrichment": 0.548}
{"sequence": "QLAPQYTFAQG [FLNA_Y1761_YF]", "phosphorylation enrichment": 0.512}
{"sequence": "VKANTYEKFWP [GATM_Y100_YF]", "phosphorylation enrichment": 0.717}
{"sequence": "LTERGYSFTTT [ACTB_Y198]", "phosphorylation enrichment": 0.756}
{"sequence": "LTVVIYVLVGR [EPHA3_Y561_I564V]", "phosphorylation enrichment": 0.391}
{"sequence": "RQQEVYLLFKQ [RARRES1_Y159_D158V_YF]", "phosphorylation enrichment": 1.37}
{"sequence": "RMQLPYDSTWE [PDGFRB_Y589_P584R]", "phosphorylation enrichment": 1.17}
{"sequence": "VCDSDYSASRW [LRP5_Y1552]", "phosphorylation enrichment": 0.731}
{"sequence": "FRIDHYLGKEM [G6PD_Y202_YF]", "phosphorylation enrichment": 0.675}
{"sequence": "CTTIHYNFMRN [TP53_Y234_C238R_YF]", "phosphorylation enrichment": 0.889}
{"sequence": "VPVDGYISGLL [PAK6_Y81_M76V]", "phosphorylation enrichment": 1.18}
{"sequence": "KLFRVYCDMNT [FGB_Y269_P265L_YF]", "phosphorylation enrichment": 1.17}
{"sequence": "ITGNGYYFRVF [MYBPC3_Y1135_I1131T]", "phosphorylation enrichment": 0.936}
{"sequence": "HDHFGYRQSVT [CD55_Y245_R240H_YF]", "phosphorylation enrichment": 0.536}
